The source of these data is the nanobody polyreactivity screen of Harvey et al. (2022).

The data set can be described thus: yeast display, Sf9 membrane polyspecificity reagent, FACS + sequencing; frameworks hold sequencing errors. Summed up: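 Using colony PCR, genes from sorted yeast display clones were amplified, then sequenced on MiSeq at 2 × 250 and filtered by CDR length. The clones had been stained with 10% biotinylated, detergent-solubilized Sf9 membrane reagent for 1 hour at 4 °C and sorted by FACS into low and high (top ~1%) gates on anti-HA and streptavidin fluorescence. Polyreactivity labels come from the gate of origin.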
On to “QVQLVESGGGLVQAGGSLRLSCAASGRTLLYNAMGWYRQAPGKERELVAAISYRGGSTYYADSVKGRFTISRDNAKNTVYLQMNSLKPEDTAVYYCAKVTYPYIRWYYPGYDYWGQGTQVTVSS”, for which the “polyreactivity (PSR sort gate)” value is reported as “high polyreactivity”. Turning to “QVQLVESGGGLVQAGGSLRLSCAASGRTLNAYAMGWYRQAPGKERELVAAITGDDGSTYYADSVKGRFTISRDNAKNTVYLQMNTLKPEDTAVYYCAAVTFSYDGYDYWGQGTQVTVSS”, the “polyreactivity (PSR sort gate)” value was “low polyreactivity”. To “QVQLVESGGGLVQAGGSLRLSCAASGRTLNDYTMGWYRQAPGKERELVAAISSSGVRTYYADSVKGRFTISRDNAKNTVYLQMNSLKPEDTAVYYAKRAGYDRRWNYDYWGQGTQVTVSS” belongs “high polyreactivity”; to “QVQLVESGGGLVQAGGSLRLSCAASGRTLNYNAMGWYRQAPGKERELVAAITSSGRTYYADSVKGRFTISRDNAKNTVFLQMNSLKPEDTAVYYCAASPYGRSILVRYGYWGQGTQVTVSS”, “high polyreactivity”. Take “QVQLVESGGGLVQAGGSLRLSCAASGRTLPAYAMGWYRQAPGKERELVAAISWGGGSTYYADSVKGRFTISRDNAKNTVYLQMNSLKPEDTAVYYCAVAGYWFAVAEYDYWGQGTQVTVSS”: the “polyreactivity (PSR sort gate)” value is listed as “low polyreactivity”.

With “QVQLVESGGGLVQAGGSLRLSCAASGRTLPKYVMGCYRQAPGKERELVDAISSSGDSTYYADSVKGRFTISRDNAKNTVYLQMNSLKPEDTAVYYCAKYDRNTYGYWGQGTQVTVSS”, the “polyreactivity (PSR sort gate)” value is listed as “low polyreactivity”. Take “QVQLVESGGGLVQAGGSLRLSCAASGRTLPPNDMGWYRQAPGKERELVAAITRSGGRTYYADSVKGRFTISRDNAKNTVYLQMNSLKPEDTAVYYCATYNPPYSDYSRYNYWGQGTQVTVSS”: the “polyreactivity (PSR sort gate)” value is reported as “high polyreactivity”.

“QVQLVESGGGLVQAGGSLRLSCAASGRTLPRYAMGGYRQAPGKERELVARIRYRGVSTYYADSVKGRFTISRDNAKTSVYLQMNSLKPEDTAVYYCAARASRAGLSGYWGQGTQVTVSS”: the “polyreactivity (PSR sort gate)” value was “high polyreactivity”. In the case of “QVQLVESGGGLVQAGGSLRLSCAASGRTLPSYAMGWYRQAPGKERELVAAITGSGGRTYYADSVKGRFTISRDNAKNTVYLQMNSLKPEDTAVYYCAARQDDYGKINYYWGQGTQVTVSS”, the “polyreactivity (PSR sort gate)” value was “high polyreactivity”. Turning to “QVQLVESGGGLVQAGGSLRLSCAASGRTLQAYAMGWYRQAPGKERELVAAINSSGGTTYYADSVKGRFTISRDNAKNTVYLQMNSLKPEDTAVYYCAATYWYHGRYYWYAYDYWGQGTQVTVSS”, the “polyreactivity (PSR sort gate)” value is on record as “high polyreactivity”.

For the sequence “QVQLVESGGGLVQAGGSLRLSCAASGRTLRHYAMGWYRQAPGKERELVAAISSTGSSTYYADSVKGRFTISRDNAKNTVYLQMNCLKPEDTAVYYCNAGKKYVDYGVLSSRYYWGQGTQVTVSS”, the “polyreactivity (PSR sort gate)” value is reported as “low polyreactivity”. To “QVQLVESGGGLVQAGGSLRLSCAASGRTLRHYAMGWYRQAPGKERELVAAISSTGSSTYYADSVKGRFTISRDNAKNTVYLQMNSLKPEDTAVYYCAADKYTWDAGGVDYWGQGTQVTVSS” belongs “low polyreactivity”; to “QVQLVESGGGLVQAGGSLRLSCAASGRTLRKYAMGWYRQAPGKERELVAAITTSGGSTYYADSVKGRFTISRDNAKNTVYLQMNSLKPDDTAVYYCNAARYYAYIGDYWGQGTQVTVSS”, “high polyreactivity”.

Regarding “QVQLVESGGGLVQAGGSLRLSCAASGRTLRQYAMGWYRQAPGKERELVAAISRGGSTTYADSVKGRFTISRDNAKNTVYIQMNSLKPEDTAVYYCAAVSSKGNRHEYDYWGQGTQVTVSS”, the “polyreactivity (PSR sort gate)” value was “low polyreactivity”. To “QVQLVESGGGLVQAGGSLRLSCAASGRTLRRNTMGWYRQAPGKERELVAAISWSGGSTYYADSVKGRFTISRDNPKNTVYLQMNSLKPEDTAVYYCAKVPRIGSYEMGYWGQGTQVTVSS” belongs “high polyreactivity”. To “QVQLVESGGGLVQAGGSLRLSCAASGRTLRRYAMGWYRQAPGKERELVAGISRNGGSTYYADSVKGRFTISRDNAKNTVYLQMNSLKPDDTAVYYCNKVAYPYSILRYGYWGLGTQVTVSS” belongs “high polyreactivity”.
